Experimental data from the supplement of paper PMC12042874.
± gives the uncertainty stated by the source.

Assay: amyloid nucleation score (Sup35N fusion, yeast selection) (log enrichment); library NNK1; higher = more nucleation; inactive = no reads after selection
Summary of the method: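 The nucleation score is the log enrichment of output over input reads, calculated with DiMSum and centred on the mode score of non-aggregating sequences. Sequences with under 100 input reads were excluded. Reads came from Illumina sequencing of plasmid inserts from psi-negative yeast expressing Sup35N fused to peptides of 20 random codons, induced 24 hours with 100 μM copper sulfate and grown 7 days at 30°C without adenine and uracil.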

Row | Substance | amyloid nucleation score
1 | FVRSFYSDKLWQIFGWVVGS | -0.753 ± 0.51
2 | FVRVLTFPYPMNVFIRLSLA | inactive
3 | FVTNTWRVTVCPSQLFGILR | inactive
4 | FVWIWYCPIYHCEVLARSPR | -0.614 ± 0.83
5 | FVYDFNGKKFLGLSCALYII | 0.22 ± 1.2
6 | FVYFTGIMIC | -0.46 ± 1
7 | FWHPLG | -0.342 ± 0.28
8 | FWLIHGMIQMGYVK | -0.458 ± 1.2
9 | FWLNLPAWISFAMFVCIVYV | -0.132 ± 0.47
10 | FWNFRVIC | 0.259 ± 1.4
11 | FWPFHDDLDVVSAFCYIRIL | -0.707 ± 0.82
12 | FWPNRLR | 0.169 ± 0.56
13 | FWRKENGYWLGFMPLVREGT | 0.247 ± 0.35
14 | FWRNEVMLSCVGTAMARRVF | 0.398 ± 0.37
15 | FWSLRMLMLADSSDKCVDYC | inactive
16 | FWSYSMP | inactive
17 | FWVRSGCVSMYGPRRVALEV | -0.003 ± 0.43
18 | FYFLKDY | -0.763 ± 0.3
19 | FYGCFRVHCVISMLGWR | 0.109 ± 0.36
20 | FYGMDLSVSRFF | 0.031 ± 0.47
21 | FYIVCRNFKTYLPSLGF | -1.12 ± 2.4
22 | FYKTL | -1.19 ± 1.2

Row | Substance | amyloid nucleation score
23 | FYPLVTFFVLHHGNMNIHRV | 6.778 ± 0.066
24 | FYPYN | 0.743 ± 0.79
25 | FYSFWMGRTCMFIVTRVNSA | -0.091 ± 0.31
26 | FYSMSGWYSTVKGVCIRTLT | 1.02 ± 0.35
27 | FYTISFLAIIATENIFCSSS | 4.42 ± 0.053
28 | FYVMSMLIM | 0.029 ± 0.47
29 | FYYGSVSLSWF | inactive
30 | GAFEGVFHRVMSDGRGAFAR | -0.289 ± 0.42
31 | GAFRVVSQHRASDVS | -0.116 ± 0.41
32 | GAKEDERSNWSVVNMLGREL | -0.341 ± 0.39
33 | GAKFSTVSRENDDMHFAWLW | 1.19 ± 0.97
34 | GARVTLYAVS | -0.475 ± 0.36
35 | GCGFSWSLCGESPYAVRPVA | 0.538 ± 0.55
36 | GCKGGSATCSTRTWMCSWGG | 2.27 ± 0.12
37 | GCTGPHFVYTDGRMHWSGSS | -0.529 ± 0.49
38 | GCTRNCSKCKGMHSQRHPYP | -0.837 ± 2.4
39 | GDDLQFT | 1.88 ± 0.69
40 | GDLSLRLLG | 0.419 ± 0.66
41 | GDSMV | -0.606 ± 0.4
42 | GDYSCPLGNIINHDPMLFRW | 0.107 ± 0.23
43 | GEGICL | -0.012 ± 1.1
44 | GERGQFTILISYMALRDRLM | 2.45 ± 0.13

Row | Substance | amyloid nucleation score
45 | GEYRDGFSLRVMGLHGSLNH | 1.07 ± 0.58
46 | GFCLVVLGYCFYMFYATNNS | 0.042 ± 0.9
47 | GFNDGVVR | 0.874 ± 0.55
48 | GFNKR | -0.991 ± 2.4
49 | GFPRCVWFNSSVIQESSFFV | 0.571 ± 1.2
50 | GFSILAPSKYVVNYWMHPQS | 7.691 ± 0.049
51 | GFSIYRCHYFSGRMVTNVSM | -0.475 ± 1.7
52 | GFTDYNRVRYKVLTVVFDYG | -1.51 ± 0.95
53 | GFTYTC | -0.915 ± 1.1
54 | GFVGYNCLCFCKSVA | -1.05 ± 0.84
55 | GFWQLFLRVIPLFSVGYSNC | 0.875 ± 0.69
56 | GFYGRICL | 0.101 ± 0.46
57 | GGAQMVHTSQSRCAARGV | -0.831 ± 0.7
58 | GGGSMAGAERPGGLGQVRCN | 1.2 ± 0.6
59 | GGMIAIKHKFIYYDLELWGY | -0.94 ± 0.43
60 | GGMLQLSSSDFTRWAQEWSI | 0.355 ± 0.73
61 | GGNDHVANLTCNNVAGSRGT | 4.33 ± 0.14
62 | GGPVREYTRMSPSVGVLDEA | 0.489 ± 0.86
63 | GGSMGHPGTLMERSYNLVVA | 0.951 ± 0.46
64 | GGSVRRDQMVYREDMQSNST | -0.746 ± 0.93
65 | GGSYKEYTLCKHTAP | 0.506 ± 0.67
66 | GGTSRLQDVDAALTGTWVSP | 0.042 ± 0.37

Row | Substance | amyloid nucleation score
67 | GGWDAGGGHAIRRIVECMVR | 0.601 ± 1.1
68 | GGYGERRDVVVDRSYTVDTG | 0.071 ± 0.62
69 | GGYGSIECFRSLVREKCCSV | 0.086 ± 0.62
70 | GGYMGL | -0.158 ± 0.35
71 | GGYVLPYSLFFGVPSIAFVG | 0.602 ± 0.7
72 | GHKNTRILQV | -0.444 ± 1.9
73 | GHLQGPLSTLIHDW | 0.564 ± 0.47
74 | GHSFGTVTDCVANQYNFLNI | 2.37 ± 0.19
75 | GHSRRLYCGLEAGARCGFSR | -0.455 ± 1.5
76 | GHTRR | -0.062 ± 0.41
77 | GHWLRQVSRRLVPADDCMVQ | inactive
78 | GIAWALKLRLVDAYPGMSMS | 0.168 ± 0.72
79 | GICLIAVVRGLIERGNGETE | 0.206 ± 1.1
80 | GIDTKDFFVAGMLGCVEGMD | 0.245 ± 0.7
81 | GIGAGYKFNDTVFSEGCSSG | 0.653 ± 0.93
82 | GIISFANRQSF | 7.944 ± 0.044
83 | GILMVELWSRR | 2.56 ± 0.18
84 | GIRSLFGGKCWDHGSFMWKF | -0.195 ± 0.54
85 | GISFWSLGC | 1.07 ± 0.84
86 | GITIITFIDGSLLGRDFPCW | 2.14 ± 0.26
